Assay results from IntAct's records for PubMed 19804755.

B1: DNA repair and telomere maintenance protein nbs1 (Schizosaccharomyces pombe (strain ATCC 38366 / 972)), O43070 (parent)
chain: MWIIEAEGDILKGKSRILFPGTYIVGRNVSDDSSHIQVISKSISKRHARFTILTPSEKDYFTGGPCEFEVKDLDTKFGTKVNEKVVGQNGDSYKEKDLKIQLGKCPFTINAYWRSMCIQFDNPEMLSQWASNLNLLGIPTGLRDSDATTHFVMNRQAGSSITVGTMYAFLKKTVIIDDSYLQYLSTVKESVIEDASLMPDALECFKNIIKNNDQFPSSPEDCINSLEGFSCAMLNTSSESHHLLELLGLRISTFMSLGDIDKELISKTDFVVLNNAVYDSEKISFPEGIFCLTIEQLWKIIIERNSRELISKEIERLKYATASNSTPQKIIQPQRHIQKNIVDDLFSVKKPLPCSPKSKRVKTLENLSIMDFVQPKQMFGKEPEGYLSNQSNNGSAQNKKSGDNSEKTKNSLKSSSKKSANTGSGQGKTKVEYVSYNSVDKGNSSPFKPLELNVVGEKKANAEVDSLPSENVQESEDDKAFEENRRLRNLGSVEYIRIMSSEKSNANSRHTSKYYSGRKNFKKFQKKASQKAPLQAFLSLSEHKKTEVFDQDDTDLEPVPRLMSKVESIPAGASSDKSGKSSISKKSSNSFKELSPKTNNDEDDEFNDLKFHF
partner: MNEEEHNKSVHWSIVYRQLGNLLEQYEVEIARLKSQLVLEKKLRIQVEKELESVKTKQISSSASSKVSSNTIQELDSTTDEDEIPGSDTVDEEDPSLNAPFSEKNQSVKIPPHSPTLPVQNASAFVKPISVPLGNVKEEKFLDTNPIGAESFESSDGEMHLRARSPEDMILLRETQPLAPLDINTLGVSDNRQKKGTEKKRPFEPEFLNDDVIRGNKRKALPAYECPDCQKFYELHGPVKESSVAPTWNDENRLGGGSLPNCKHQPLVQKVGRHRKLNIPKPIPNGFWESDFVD

Variants of: B1
Conditions: with com1_schpo ctp1, O74986

Row | effect of a mutation on the interaction | Variant
1 | decreasing interaction | R27A;K45A
